Measured values: patent US10087225B2, “Formulation of MK2 inhibitor peptides” (MOERAE MATRIX, INC., priority 2015, dated 2018)

How the values were obtained:
Experiment in all cases: Kinase Profiling Assay
Assay type in all cases: biochemical
Details in all cases: for % activity: 100 μM
MAPKAP-K3(h) = MAPKAP-K3(h) (Homo sapiens, UniProt Q16644)
JAK2(h) = JAK2(h) (Homo sapiens, UniProt O60674)
MAPKAP-K2(h) = MAPKAP-K2(h) (Homo sapiens, UniProt P49137)
EphB2(h) = biological target: T1, EphB2(h) (Homo sapiens, UniProt P29323)
T1 sequence (P29323 19-1055): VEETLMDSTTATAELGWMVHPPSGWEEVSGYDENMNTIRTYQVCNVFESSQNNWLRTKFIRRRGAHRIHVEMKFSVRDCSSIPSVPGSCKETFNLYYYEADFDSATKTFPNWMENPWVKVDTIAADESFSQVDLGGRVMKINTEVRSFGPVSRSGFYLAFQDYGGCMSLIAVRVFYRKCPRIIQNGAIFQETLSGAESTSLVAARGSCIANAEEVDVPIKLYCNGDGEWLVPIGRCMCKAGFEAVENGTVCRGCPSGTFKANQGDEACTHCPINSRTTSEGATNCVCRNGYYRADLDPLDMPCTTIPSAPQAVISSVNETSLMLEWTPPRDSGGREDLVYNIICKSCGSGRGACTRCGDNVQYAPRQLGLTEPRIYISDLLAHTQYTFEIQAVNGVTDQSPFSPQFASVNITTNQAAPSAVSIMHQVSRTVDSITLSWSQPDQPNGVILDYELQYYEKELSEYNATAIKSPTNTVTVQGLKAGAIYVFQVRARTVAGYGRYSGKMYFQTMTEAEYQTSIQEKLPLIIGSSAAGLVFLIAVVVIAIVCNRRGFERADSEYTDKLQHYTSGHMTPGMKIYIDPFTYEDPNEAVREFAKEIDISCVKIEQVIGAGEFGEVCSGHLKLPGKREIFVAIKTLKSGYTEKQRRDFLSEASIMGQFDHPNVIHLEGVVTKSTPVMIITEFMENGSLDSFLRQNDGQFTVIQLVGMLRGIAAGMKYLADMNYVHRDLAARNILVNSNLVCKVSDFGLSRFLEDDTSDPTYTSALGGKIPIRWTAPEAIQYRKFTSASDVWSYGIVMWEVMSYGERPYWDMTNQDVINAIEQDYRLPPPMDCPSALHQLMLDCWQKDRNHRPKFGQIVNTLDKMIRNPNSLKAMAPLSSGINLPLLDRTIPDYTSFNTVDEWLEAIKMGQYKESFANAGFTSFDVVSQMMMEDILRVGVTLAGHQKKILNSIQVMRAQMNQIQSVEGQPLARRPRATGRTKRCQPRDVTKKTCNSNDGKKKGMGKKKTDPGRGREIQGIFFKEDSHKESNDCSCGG

KDR(h) = KDR(h) (Homo sapiens, UniProt P35968)
EGFR(L861Q)(h) = EGFR(L861Q)(h) (Homo sapiens, UniProt P00533, L861Q)
TAO2(h) = biological target: T2, TAO2(h) (Homo sapiens, UniProt Q9UL54)
T2 sequence (Q9UL54 1-1235): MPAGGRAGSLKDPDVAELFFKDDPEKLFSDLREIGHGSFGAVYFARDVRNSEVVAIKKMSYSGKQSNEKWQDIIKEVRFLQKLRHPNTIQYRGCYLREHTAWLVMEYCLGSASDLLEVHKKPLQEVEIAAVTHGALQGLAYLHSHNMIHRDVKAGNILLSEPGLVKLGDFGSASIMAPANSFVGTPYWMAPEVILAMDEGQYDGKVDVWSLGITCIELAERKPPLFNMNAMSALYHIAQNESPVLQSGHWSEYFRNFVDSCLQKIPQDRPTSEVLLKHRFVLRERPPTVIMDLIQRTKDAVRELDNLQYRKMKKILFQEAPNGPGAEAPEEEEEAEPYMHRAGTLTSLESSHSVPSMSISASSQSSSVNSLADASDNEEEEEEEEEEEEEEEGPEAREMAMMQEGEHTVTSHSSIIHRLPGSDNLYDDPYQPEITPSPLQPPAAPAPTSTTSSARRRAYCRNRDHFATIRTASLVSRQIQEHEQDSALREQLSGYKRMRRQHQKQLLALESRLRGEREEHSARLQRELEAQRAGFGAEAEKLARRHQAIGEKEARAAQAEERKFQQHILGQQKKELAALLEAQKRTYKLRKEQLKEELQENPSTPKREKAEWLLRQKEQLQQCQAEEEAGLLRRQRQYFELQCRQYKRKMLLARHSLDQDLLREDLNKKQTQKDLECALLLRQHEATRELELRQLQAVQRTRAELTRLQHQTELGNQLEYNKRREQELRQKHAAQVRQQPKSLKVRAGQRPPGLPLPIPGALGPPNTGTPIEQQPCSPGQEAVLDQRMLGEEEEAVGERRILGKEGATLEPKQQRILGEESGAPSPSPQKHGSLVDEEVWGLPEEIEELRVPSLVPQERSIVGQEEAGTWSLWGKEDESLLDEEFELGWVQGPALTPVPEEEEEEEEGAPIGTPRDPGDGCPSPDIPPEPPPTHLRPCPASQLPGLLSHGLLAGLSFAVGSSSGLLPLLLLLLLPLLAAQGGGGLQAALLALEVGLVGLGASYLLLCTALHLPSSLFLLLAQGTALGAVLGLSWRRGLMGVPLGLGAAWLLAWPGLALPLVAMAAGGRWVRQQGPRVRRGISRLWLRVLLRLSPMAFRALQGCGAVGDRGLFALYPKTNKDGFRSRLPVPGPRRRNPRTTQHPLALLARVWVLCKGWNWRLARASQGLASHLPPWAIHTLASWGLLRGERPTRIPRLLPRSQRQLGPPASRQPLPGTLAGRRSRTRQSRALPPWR

WNK2(h) = WNK2(h) (Homo sapiens, UniProt Q9Y3S1)

Chain of KDR(h) (P35968 20-1356): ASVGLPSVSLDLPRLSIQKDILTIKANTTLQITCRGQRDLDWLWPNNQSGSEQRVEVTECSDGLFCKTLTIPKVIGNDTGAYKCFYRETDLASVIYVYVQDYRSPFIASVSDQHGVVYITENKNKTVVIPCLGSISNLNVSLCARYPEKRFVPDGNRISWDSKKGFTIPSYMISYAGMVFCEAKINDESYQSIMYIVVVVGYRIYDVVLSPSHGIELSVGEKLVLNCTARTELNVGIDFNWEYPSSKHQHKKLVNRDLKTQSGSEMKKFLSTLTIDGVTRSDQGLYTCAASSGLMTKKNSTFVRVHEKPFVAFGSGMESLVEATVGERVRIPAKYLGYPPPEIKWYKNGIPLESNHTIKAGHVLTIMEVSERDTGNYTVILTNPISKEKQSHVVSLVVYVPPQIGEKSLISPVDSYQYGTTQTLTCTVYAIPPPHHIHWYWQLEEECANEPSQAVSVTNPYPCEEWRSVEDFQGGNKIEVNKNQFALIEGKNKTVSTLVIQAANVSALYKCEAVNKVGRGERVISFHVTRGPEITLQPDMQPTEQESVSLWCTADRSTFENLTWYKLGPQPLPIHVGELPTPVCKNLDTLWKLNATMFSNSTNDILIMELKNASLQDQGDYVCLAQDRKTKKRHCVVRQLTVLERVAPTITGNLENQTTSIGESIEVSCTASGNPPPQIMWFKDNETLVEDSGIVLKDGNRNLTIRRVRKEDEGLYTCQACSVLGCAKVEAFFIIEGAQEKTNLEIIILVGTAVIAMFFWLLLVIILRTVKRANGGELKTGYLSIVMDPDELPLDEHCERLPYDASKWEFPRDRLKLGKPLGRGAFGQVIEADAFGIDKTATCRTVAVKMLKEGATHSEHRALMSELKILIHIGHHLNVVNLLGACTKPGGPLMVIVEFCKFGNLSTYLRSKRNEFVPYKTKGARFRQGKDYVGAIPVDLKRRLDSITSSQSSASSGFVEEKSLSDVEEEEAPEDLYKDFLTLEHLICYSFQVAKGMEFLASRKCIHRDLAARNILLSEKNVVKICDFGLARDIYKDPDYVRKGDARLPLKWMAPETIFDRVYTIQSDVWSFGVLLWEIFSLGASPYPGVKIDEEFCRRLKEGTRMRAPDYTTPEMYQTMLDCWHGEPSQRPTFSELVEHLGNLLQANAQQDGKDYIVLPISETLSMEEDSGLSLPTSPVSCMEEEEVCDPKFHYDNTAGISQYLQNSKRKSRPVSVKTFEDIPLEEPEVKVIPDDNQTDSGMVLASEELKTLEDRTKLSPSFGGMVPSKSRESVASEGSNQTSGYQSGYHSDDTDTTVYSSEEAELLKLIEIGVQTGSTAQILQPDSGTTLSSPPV
Chain of JAK2(h) (O60674 whole entry): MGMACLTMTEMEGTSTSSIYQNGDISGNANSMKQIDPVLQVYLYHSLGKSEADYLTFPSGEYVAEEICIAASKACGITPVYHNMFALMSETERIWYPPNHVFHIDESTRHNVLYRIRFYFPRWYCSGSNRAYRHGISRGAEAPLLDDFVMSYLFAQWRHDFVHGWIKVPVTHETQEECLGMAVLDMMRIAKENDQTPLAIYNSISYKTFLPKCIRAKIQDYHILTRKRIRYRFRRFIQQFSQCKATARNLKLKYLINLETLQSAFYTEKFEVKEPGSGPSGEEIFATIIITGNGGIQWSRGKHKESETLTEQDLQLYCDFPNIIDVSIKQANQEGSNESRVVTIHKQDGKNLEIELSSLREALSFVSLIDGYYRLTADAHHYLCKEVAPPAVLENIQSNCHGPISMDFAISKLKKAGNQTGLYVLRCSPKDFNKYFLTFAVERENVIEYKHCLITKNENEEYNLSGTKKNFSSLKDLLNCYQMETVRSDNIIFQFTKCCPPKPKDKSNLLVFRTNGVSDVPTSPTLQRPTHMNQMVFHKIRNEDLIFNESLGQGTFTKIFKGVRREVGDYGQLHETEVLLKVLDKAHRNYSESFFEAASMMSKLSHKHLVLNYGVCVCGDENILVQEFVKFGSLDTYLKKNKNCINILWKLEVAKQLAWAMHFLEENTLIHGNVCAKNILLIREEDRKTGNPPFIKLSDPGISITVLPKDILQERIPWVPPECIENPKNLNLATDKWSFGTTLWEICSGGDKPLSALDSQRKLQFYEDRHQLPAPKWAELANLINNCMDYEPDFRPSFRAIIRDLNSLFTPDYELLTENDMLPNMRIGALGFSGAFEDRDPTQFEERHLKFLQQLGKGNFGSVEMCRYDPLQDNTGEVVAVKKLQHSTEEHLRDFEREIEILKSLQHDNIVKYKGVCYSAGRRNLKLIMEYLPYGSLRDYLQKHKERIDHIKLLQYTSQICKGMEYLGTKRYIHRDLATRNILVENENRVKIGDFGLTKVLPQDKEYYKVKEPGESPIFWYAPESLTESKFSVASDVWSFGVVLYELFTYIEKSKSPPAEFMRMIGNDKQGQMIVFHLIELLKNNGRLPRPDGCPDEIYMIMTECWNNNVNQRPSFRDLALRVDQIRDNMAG
Chain of MAPKAP-K3(h) (Q16644 whole entry): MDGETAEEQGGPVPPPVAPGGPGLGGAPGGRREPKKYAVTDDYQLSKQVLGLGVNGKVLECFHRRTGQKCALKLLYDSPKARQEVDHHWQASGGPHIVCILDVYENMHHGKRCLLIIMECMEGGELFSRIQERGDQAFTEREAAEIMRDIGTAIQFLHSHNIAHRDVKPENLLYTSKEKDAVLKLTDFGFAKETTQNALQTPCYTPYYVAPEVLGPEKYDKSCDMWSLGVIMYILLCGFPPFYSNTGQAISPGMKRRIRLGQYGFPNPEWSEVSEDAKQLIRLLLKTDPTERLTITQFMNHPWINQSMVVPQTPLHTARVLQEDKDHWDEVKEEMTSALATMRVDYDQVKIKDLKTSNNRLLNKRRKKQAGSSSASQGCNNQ
Chain of MAPKAP-K2(h) (P49137 whole entry): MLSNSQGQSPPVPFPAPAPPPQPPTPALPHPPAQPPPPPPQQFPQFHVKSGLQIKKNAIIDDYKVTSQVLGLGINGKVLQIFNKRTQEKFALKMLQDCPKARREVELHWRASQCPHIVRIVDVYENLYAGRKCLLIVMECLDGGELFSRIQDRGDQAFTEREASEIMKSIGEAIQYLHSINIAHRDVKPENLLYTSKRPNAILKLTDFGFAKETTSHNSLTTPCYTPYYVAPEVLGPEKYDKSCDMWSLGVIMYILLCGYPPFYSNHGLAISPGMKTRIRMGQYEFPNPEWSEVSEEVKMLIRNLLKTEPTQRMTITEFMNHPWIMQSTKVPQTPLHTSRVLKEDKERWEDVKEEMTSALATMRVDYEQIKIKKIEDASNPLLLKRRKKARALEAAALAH

Substance | % activity (MAPKAP-K3(h)) | % activity (JAK2(h)) | % activity (MAPKAP-K2(h)) | % activity (EphB2(h)) | % activity (KDR(h)) | % activity (EGFR(L861Q)(h)) | % activity (TAO2(h)) | % activity (WNK2(h)) | activity at 100 µM (MAPKAP-K3(h)) | activity at 100 µM (JAK2(h)) | activity at 100 µM (MAPKAP-K2(h)) | activity at 100 µM (EphB2(h)) | activity at 100 µM (KDR(h)) | activity at 100 µM (EGFR(L861Q)(h)) | activity at 100 µM (TAO2(h)) | activity at 100 µM (WNK2(h))
HRRIKAWLKKIKALARQLGVAA (Mammalian) [MMI-0500] | 9% | 49% | 9% | 70% | 15% | 15% | 15% | 8% | – | – | – | – | – | – | – | –
YARAAARQARAKALNRQLGVA (Mammalian) [MMI-0200] | 39% | 131% | 35% | 128% | 110% | 74% | 93% | 94% | – | – | – | – | – | – | – | –
H-YARAAARQARAKALARQLGVAA-OH [MMI-0100] | – | – | – | – | – | – | – | – | 27% | 89% | 19% | 68% | 100% | 53% | 95% | 95%
